Patent US20230295332A1 (INTERIUS BIOTHERAPEUTICS, published 2023)

T1: non-human primate CD7 (non-human primate)
T1 chain: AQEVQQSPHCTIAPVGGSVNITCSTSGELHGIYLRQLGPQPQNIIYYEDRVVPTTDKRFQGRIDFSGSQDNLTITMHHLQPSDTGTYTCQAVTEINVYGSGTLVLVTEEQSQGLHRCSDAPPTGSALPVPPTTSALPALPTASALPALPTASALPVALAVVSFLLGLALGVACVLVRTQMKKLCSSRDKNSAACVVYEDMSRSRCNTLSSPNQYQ

T2: human CD7 (human, UniProt P09564 26-240)
T2 sequence: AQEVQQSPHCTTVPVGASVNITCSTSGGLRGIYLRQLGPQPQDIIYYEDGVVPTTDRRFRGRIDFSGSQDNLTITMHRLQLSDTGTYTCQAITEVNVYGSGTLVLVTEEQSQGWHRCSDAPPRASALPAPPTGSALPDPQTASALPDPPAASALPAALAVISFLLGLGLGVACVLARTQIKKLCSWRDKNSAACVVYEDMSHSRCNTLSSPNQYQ


What was measured:
Assay in all cases: cell-based or functional assay
[1] = target: T1, non-human primate CD7
[2] = target: T2, human CD7
[3] = target: human CD8 (human, UniProt P01732 22-235; P10966 22-210)
Chain of human CD8 (P01732 22-235 Y112C limits assumed, chain 1 of 2): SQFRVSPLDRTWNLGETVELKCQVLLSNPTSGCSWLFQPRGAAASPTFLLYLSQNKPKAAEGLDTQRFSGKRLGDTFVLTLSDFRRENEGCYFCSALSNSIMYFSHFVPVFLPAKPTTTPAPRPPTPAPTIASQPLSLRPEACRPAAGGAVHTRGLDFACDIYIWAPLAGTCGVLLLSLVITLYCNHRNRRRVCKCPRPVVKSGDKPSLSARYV
Chain of human CD8 (P10966 other isoform, or with tags, fused parts or gaps limits assumed, chain 2 of 2): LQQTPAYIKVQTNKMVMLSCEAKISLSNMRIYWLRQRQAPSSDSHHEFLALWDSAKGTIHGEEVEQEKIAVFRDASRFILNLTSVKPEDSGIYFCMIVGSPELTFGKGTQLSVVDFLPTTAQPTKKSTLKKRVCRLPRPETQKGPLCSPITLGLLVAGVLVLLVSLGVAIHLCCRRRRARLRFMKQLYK

[4] = target: non-human primate CD8 (non-human primate)

| Binder | NHP PBMC Transduction (% positive) [1] | Human PBMC Transduction (% positive) [2] | Human PBMC Transduction (% positive) [3] | NHP PBMC Transduction (% positive) [4] |
| --- | --- | --- | --- | --- |
| CD7 Binder (SEQ ID NO. 51) (scFv) scFv: DILLTQSPAILSVSPGERVSFSCRASQSIGTSIHWYQQRTNDSPRLLIKYASESISGIPSRFSGSGSGTDFTLSINSVESEDIADYYCQQSNSWPTTFGGGTKLEIKRGGGGSGGGGSGGGGSGGGGSQVQLQQPGAELVKPGASVKLSCKASGYPFTSYWIHWVKQRPGRGLEWLGRIDPNSGDTKYNEKFKNKATLTVDKSSTTAYMQLSSLTSEDSAVYYCARSPYYSNDNSMDYWGQGTSVTVSS | 2.61 % positive | 19.3 % positive | – | – |
| CD8 binder of SEQ ID NO: 70 (printed in Table 1 as 'CD7 Binder (SEQ ID NO. 70)') (scFv) scFv: EVQLQQSGPELVKPGASVKISCKASRYTFTDYNLHWVKLSHEKSLEWIGFIYPYNGGTGYNQKFKNKAKLTVDYSSSTAYMELRSLTSVDAAVYYCARDHRYNEGVSFDYWGQGTTLTVSSGGGGSGGGGSGGGGSGGGGSNIVLTQSPASLAVSLGQRATISCRASESVDGFGNSFMNWYQQKPGQSPKLLIYLASNLESGVPARFSGSGSRTDFTLTIDPVEADDAATYYCQQNNEDPYTFGGGTKLEIKR | – | – | 3.17 % positive | 0.76 % positive |
| CD8 Binder (SEQ ID NO. 69) (scFv) scFv: NIVLTQSPASLAVSLGQRATISCRASESVDGFGNSFMNWYQQKPGQSPKLLIYLASNLESGVPARFSGSGSRTDFTLTIDPVEADDAATYYCQQNNEDPYTFGGGTKLEIKRGGGGSGGGGSGGGGSGGGGSEVQLQQSGPELVKPGASVKISCKASRYTFTDYNLHWVKLSHEKSLEWIGFIYPYNGGTGYNQKFKNKAKLTVDYSSSTAYMELRSLTSVDAAVYYCARDHRYNEGVSFDYWGQGTTLTVSS | – | – | 4.09 % positive | 1.8 % positive |
| CD7 Binder (SEQ ID NO. 52) (scFv) scFv: QVQLQQPGAELVKPGASVKLSCKASGYPFTSYWIHWVKQRPGRGLEWLGRIDPNSGDTKYNEKFKNKATLTVDKSSTTAYMQLSSLTSEDSAVYYCARSPYYSNDNSMDYWGQGTSVTVSSGGGGSGGGGSGGGGSGGGGSDILLTQSPAILSVSPGERVSFSCRASQSIGTSIHWYQQRTNDSPRLLIKYASESISGIPSRFSGSGSGTDFTLSINSVESEDIADYYCQQSNSWPTTFGGGTKLEIKR | 5.64 % positive | 21.6 % positive | – | – |
